From patent US20260218270A1

Columns and labels:
[1] = molecular target: fusion protein of SEQ ID NO: 16 (Nanoluc luciferase at the C-terminus, VWF A2 domain aa1574-1668, Flag-tag, C-terminal His-tag); assay: cell-based or functional assay
[2] = molecular target: T1, fusion protein of SEQ ID NO: 15 (Nanoluc luciferase at the N-terminus, VWF A2 domain aa1574-1668, Flag-tag, C-terminal His-tag)
T1 chain: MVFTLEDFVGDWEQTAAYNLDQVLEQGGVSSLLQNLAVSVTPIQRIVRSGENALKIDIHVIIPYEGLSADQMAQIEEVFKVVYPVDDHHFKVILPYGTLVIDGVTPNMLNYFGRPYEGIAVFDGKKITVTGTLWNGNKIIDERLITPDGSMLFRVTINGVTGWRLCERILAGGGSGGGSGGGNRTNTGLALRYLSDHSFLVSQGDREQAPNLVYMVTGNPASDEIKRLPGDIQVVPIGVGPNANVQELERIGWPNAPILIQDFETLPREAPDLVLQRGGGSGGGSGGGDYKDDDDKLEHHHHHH

[3] = molecular target: T2, N-NLuc-VWFA2-C fusion protein (SEQ ID NO: 17)
T2 chain: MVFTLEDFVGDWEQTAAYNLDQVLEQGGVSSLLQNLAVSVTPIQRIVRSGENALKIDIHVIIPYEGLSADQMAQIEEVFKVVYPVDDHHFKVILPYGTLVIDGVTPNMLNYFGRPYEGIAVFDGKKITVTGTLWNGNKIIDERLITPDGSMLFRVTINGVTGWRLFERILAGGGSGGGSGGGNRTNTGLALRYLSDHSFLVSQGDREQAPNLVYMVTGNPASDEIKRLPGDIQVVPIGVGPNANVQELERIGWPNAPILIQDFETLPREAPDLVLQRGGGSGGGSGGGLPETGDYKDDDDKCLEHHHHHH

[4] = molecular target: T3, fusion protein of SEQ ID NO: 16 (Nanoluc luciferase at the C-terminus, VWF A2 domain aa1574-1668, Flag-tag, C-terminal His-tag)
T3 chain: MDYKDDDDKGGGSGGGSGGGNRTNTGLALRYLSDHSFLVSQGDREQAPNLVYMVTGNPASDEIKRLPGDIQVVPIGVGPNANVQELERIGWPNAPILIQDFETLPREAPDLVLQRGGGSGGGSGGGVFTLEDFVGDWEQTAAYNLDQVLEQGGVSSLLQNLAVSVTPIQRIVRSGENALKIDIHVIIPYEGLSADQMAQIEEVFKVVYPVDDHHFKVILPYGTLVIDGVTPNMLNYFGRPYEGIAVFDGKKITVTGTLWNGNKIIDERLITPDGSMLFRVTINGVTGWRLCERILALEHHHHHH

luminescence (RLU) left on the Ni-NTA binding plate, A13 from lithium-heparin plasma, FIG. 8C [1]: 400000 RLU
B1: ADAMTS13 (protein)
chain: AAGGILHLELLVAVGPDVFQAHQEDTERYVLTNLNIGAELLRDPSLGAQFRVHLVKMVILTEPEGAPNITANLTSSLLSVCGWSQTINPEDDTDPGHADLVLYITRFDLELPDGNRQVRGVTQLGGACSPTWSCLITEDTGFDLGVTIAHEIGHSFGLEHDGAPGSGCGPSGHVMASDGAAPRAGLAWSPCSRRQLLSLLSAGRARCVWDPPRPQPGSAGHPPDAQPGLYYSANEQCRVAFGPKAVACTFAREHLDMCQALSCHTDPLDQSSCSRLLVPLLDGTECGVEKWCSKGRCRSLVELTPIAAVHGRWSSWGPRSPCSRSCGGGVVTRRRQCNNPRPAFGGRACVGADLQAEMCNTQACEKTQLEFMSQQCARTDGQPLRSSPGGASFYHWGAAVPHSQGDALCRHMCRAIGESFIMKRGDSFLDGTRCMPSGPREDGTLSLCVSGSCRTFGCDGRMDSQQVWDRCQVCGGDNSTCSPRKGSFTAGRAREYVTFLTVTPNLTSVYIANHRPLFTHLAVRIGGRYVVAGKMSISPNTTYPSLLEDGRVEYRVALTEDRLPRLEEIRIWGPLQEDADIQVYRRYGEEYGNLTRPDITFTYFQPKPRQAWVWAAVRGPCSVSCGAGLRWVNYSCLDQARKELVETVQCQGSQQPPAWPEACVLEPCPPYWAVGDFGPCSASCGGGLRERPVRCVEAQGSLLKTLPPARCRAGAQQPAVALETCNPQPCPARWEVSEPSSCTSAGGAGLALENETCVPGADGLEAPVTEGPGSVDEKLPAPEPCVGMSCPPGWGHLDATSAGEKAPSPWGSIRTGAQAAHVWTPAAGSCSVSCGRGLMELRFLCMDSALRVPVQEELCGLASKPGSRREVCQAVPCPARWQYKLAACSVSCGRGVVRRILYCARAHGEDDGEEILLDTQCQGLPRPEPQEACSLEPCPPRWKVMSLGPCSASCGLGTARRSVACVQLDQGQDVEVDEAACAALVRPEASVPCLIADCTYRWHVGTWMECSVSCGDGIQRRRDTCLGPQAQAPVPADFCQHLPKPVTVRGCWAGPCVGQGTPSLVPHEEAAAPGRTTATPAGASLEWSQARGLLFSPAPQPRRLLPGPQENSVQSSACGRQHLEPTGTIDMRGPGQADCAVAIGRPLGEVVTLRVLESSLNCSAGDMLLLWGRLTWRKMCRKLLDMTFSSKTNTLVVRQRCGRPGGGVLLRYGSQLAPETFYRECDMQLFGPWGEIVSPSLSPATSNAGGCRLFINVAPHARIAIHALATNMGAGTEGANASYILIRDTHSLRTTAFHGQQVLYWESESSQAEMEFSEGFLKAQASLRGQYWTLQSWVPEMQDPQSWKGKEGT
luminescence (RLU) of fusion protein left on anti-VWF-A2 coated plate after incubation with 0-20% NPP [2]: shows a decreasing signal when the concentration NPP increases, suggesting that ADAMTS13 cleaves the fusion protein | SDS-PAGE (4-15% gradient, Coomassie Blue), FIG. 10 [3]: shows the expected fragments of the fusion-protein (SEQ ID NO: 17) after cleavage by adding ADAMTS13 | amount of fusion protein cleaved off and transferred to the new plate [4]: ~120 ng VWFA2-Nanoluc | luminescence (RLU) against NPP concentration, FIG. 1 [4]: This fusion protein is also cleaved by ADAMTS13 but here is not as much influence on light emission | luminescence (RLU) of fusion protein left on anti-VWF-A2 coated plate after incubation with 0-20% NPP [4]: did not demonstrate an effect of an increasing ADAMTS13 concentration | luminescence (RLU) transferred from anti-FLAG plate after A13 at 0-1 IU/mL [4]: a signal increase from ~1.5 towards ~1.7 M RLU for C-Flag | share of the initially offered quantity that was cleaved off and transferred [4]: ~12% of the initially offered quantity to the wells
